Patent US9290745B2, “Luciferase biosensor” (PROMEGA CORPORATION, priority 2003, dated 2016)
Entries after “also recorded” stand apart in the source; their conditions may differ. Blank lines part the entries; values can stand above or below the molecule they belong to.

Tests used:
[1] = molecular target: cyclic AMP dependent protein kinase catalytic subunit (Homo sapiens, UniProt P17612); conditions: cited from earlier work
[2] = molecular target: cyclic AMP-dependent protein kinase (Homo sapiens, UniProt P17612); conditions: cited from earlier work
caspase-3 [3] = molecular target: T1, caspase-3 (Homo sapiens, UniProt P42574); assay type: biochemical
T1 construct: purchased BioMol
T1 sequence (P42574 29-175 limits assumed): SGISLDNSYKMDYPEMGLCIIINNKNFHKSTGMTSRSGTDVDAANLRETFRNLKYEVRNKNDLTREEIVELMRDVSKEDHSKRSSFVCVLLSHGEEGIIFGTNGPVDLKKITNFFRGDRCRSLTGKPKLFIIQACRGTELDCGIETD
T1 sequence (P42574 176-277 limits assumed): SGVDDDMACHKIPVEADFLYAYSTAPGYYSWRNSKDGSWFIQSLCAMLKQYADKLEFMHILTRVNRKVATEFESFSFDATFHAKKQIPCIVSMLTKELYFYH

enterokinase = molecular target: T2, enterokinase (Bos taurus, UniProt P98072); assay: Enterokinase assay with firefly luciferases having an internal enterokinase site; assay type: biochemical
T2 construct: purchased Invitrogen

caspase-3 [4] = molecular target: T1, caspase-3; assay: Caspase-3 activation of circularly permuted firefly luciferase having a caspase-3 site; assay type: biochemical; conditions: TnT rabbit reticulocyte lysate

T2 sequence (P98072 801-1035 limits assumed): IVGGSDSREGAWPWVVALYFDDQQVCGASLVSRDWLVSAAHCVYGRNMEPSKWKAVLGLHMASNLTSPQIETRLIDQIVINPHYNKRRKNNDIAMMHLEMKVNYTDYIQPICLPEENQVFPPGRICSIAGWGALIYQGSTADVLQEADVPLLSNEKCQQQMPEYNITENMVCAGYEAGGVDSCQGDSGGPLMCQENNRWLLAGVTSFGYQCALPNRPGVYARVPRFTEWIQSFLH

Molecule: LRRASLG
reduction of activity on addition of kinase catalytic subunit [1]: 30%

Molecule: RRFS: Photinus pyralis luciferase, valine 217 mutated to arginine generating site RRFS (Sala-Newby et al.)
decrease of activity when phosphorylated [2]: up to 80%

Molecule: Ac-DEVD-CHO
caspase-3 induced decrease of Cbg69DEVD luciferase activity in presence of caspase inhibitor (caspase-3 [3]): decrease in activity was not observed

luminescence reading (Turner 20/20 luminometer) (enterokinase; 0 minutes, with 1 U EKMax): 2561
luminescence reading (Turner 20/20 luminometer) (enterokinase; 0 minutes, without EKMax): 2517
luminescence reading (Turner 20/20 luminometer) (enterokinase; 15 minutes, with 1 U EKMax): 2905
luminescence reading (Turner 20/20 luminometer) (enterokinase; 15 minutes, without EKMax): 2855
luminescence reading (Turner 20/20 luminometer) (enterokinase; 30 minutes, with 1 U EKMax): 3190
luminescence reading (Turner 20/20 luminometer) (enterokinase; 30 minutes, without EKMax): 2987
effect of caspase-3 on activity (caspase-3 [4]): not affected
B1: WT enzyme: parental (unmodified) firefly luciferase luc+ (protein)
chain: MEDAKNIKKGPAPFYPLEDGTAGEQLHKAMKRYALVPGTIAFTDAHIEVDITYAEYFEMSVRLAEAMKRYGLNTNHRIVVCSENSLQFFMPVLGALFIGVAVAPANDIYNERELLNSMGISQPTVVFVSKKGLQKILNVQKKLPIIQKIIIMDSKTDYQGFQSMYTFVTSHLPPGFNEYDFVPESFDRDKTIALIMNSSGSTGLPKGVALPHRTACVRFSHARDPIFGNQIIPDTAILSVVPFHHGFGMFTTLGYLICGFRVVLMYRFEEELFLRSLQDYKIQSALLVPTLFSFFAKSTLIDKYDLSNLHEIASGGAPLSKEVGEAVAKRFHLPGIRQGYGLTETTSAILITPEGDDKPGAVGKVVPFFEAKVVDLDTGKTLGVNQRGELCVRGPMIMSGYVNNPEATNALIDKDGWLHSGDIAYWDEDEHFFIVDRLKSLIKYKGYQVAPAELESILLQHPNIFDAGVAGLPDDDAGELPAAVVVLEHGKTMTEKEIVDYVASQVTTAKKLRGGVVFVDEVPKGLTGKLDARKIREILIKAKKGGKIAV
effect of enterokinase on luciferase activity (enterokinase): no effect; also recorded: not affected; also recorded: not altered
